Experimental data taken from patent US20060026702A1, “Phosphoinositide 3-kinase mediated inhibition of GPCRs” (DUKE UNIVERSITY, priority 2002, published 2006).

Target: endogenous βARK1 of HEK 293 cells (UniProt P25098)
Experiment: cell-based or functional assay

endogenous βARK1 of HEK 293 cells, sequence (P25098 whole entry): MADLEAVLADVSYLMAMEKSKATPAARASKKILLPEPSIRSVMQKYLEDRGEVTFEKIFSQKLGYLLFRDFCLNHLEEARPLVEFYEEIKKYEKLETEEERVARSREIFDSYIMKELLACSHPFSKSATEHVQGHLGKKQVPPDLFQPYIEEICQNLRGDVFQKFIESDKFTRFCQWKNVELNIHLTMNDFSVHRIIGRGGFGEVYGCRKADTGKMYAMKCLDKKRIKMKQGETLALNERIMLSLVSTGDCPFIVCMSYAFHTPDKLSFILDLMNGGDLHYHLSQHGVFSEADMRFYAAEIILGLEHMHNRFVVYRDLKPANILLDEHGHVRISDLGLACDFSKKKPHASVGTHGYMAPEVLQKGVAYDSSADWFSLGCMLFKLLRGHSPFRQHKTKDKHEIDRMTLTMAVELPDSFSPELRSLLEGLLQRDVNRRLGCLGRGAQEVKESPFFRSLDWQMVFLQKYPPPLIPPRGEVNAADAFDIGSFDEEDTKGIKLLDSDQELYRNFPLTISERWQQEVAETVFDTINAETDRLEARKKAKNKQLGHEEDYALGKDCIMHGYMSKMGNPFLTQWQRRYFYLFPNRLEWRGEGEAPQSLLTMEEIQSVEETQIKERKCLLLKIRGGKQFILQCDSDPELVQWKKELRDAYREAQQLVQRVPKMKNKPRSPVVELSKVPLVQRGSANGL

rate of agonist-dependent β2AR sequestration (125I-Cyanopindolol binding) with HEAT protein overexpressed: > 60%
Substance: endogenous PI3K of HEK 293 cells (enzyme)
